Reference: article PMC4409870

Molecular target: GST-tagged βI spectrin N-terminal fragment, residues 1 to 301 (UniProt P11277)
Experiment: pull-down

UniProt P11277, sequence (P11277 1-301): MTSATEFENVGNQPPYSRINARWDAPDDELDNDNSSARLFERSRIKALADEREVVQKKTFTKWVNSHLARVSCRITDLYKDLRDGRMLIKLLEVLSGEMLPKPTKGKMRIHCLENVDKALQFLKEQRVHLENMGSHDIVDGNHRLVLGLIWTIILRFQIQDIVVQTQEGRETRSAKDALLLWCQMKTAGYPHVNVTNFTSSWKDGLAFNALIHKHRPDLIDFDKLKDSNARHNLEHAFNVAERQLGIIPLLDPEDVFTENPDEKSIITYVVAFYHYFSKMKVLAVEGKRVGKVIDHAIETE

Substance | reduction of binding against the unphosphorylated protein [%]
His-tagged 4.1R-S312A, phosphorylated in vitro by the catalytic subunit of PKC (natural protein) | 30
His-tagged 4.1R-S331A, phosphorylated in vitro by the catalytic subunit of PKC (natural protein) | 30
